From patent US20220356229A1 (published 2022)

Assays:
[1] = molecular target: Spike protein of authentic SARS-CoV-2/MT020880.1 (live virus) (SARS-CoV-2, UniProt P0DTC2 14-1273); test: cell-based or functional assay
[2] = molecular target: SARS-CoV-2 Spike protein (wild type) (SARS-CoV-2, UniProt P0DTC2 14-1208); test: SPR (Carterra LSA), mAb coupled to HC30M chip, Spike titrated; Example 4 methods
[3] = molecular target: SARS-CoV-2 full length Spike protein, wild type (SARS-CoV-2, UniProt P0DTC2 14-1208)
[4] = molecular target: SARS-CoV-2 full length Spike protein, wild type, expressed on the surface of transiently transfected CHO cells (SARS-CoV-2, UniProt P0DTC2 14-1273)
[5] = molecular target: SARS-CoV-2 full length Spike protein, wild type (SARS-CoV-2, UniProt P0DTC2 14-1208); remark: listed apart in the source
[6] = molecular target: Spike protein of SARS-CoV-2 hCoV-19/Canada/ON_ON-VIDO-01-2/202 (live virus) (SARS-CoV-2, UniProt P0DTC2 14-1273); test: cell-based or functional assay
[7] = molecular target: SARS-CoV-2 Spike protein on pseudotyped lentivirus (SARS-CoV-2, UniProt P0DTC2 14-1273); test: cell-based or functional assay

B1: anti-SARS-CoV-2 antibody 1015 (antibody, V domains shown)
VH: EVQLVESGGGLVQPGGSLRLSCAASGFTFSSYWMHWVRQAPGKGLVWVSHINSDGSSTSYADSVKGRFTISRDNAKNTLYLQMNSLRAEDTAVYYCARGLRYFDLDVWGQGTTVTVSS
VL: QSVLTQPPSVSEAPRQRVTISCSGSSSNIGNNAVNWYQQLPGKAPKLLIFYDDLLPSGVSDRFSGSKSGTSASLAISGLQSEDEADYYCAAWDDSLNGGVFGGGTKLTVLG
[1]
  IC50 (ng/mL), immunofluorescence neutralization assay: 260 ng/mL

B2: anti-SARS-CoV-2 antibody 1091 (antibody, V domains shown)
VH: QVQLVESGGGVVQPGRSLRLSCAASGFTFSNYAMHWVRQAPGKGLEWVAVISYDGSNKYYADSVKGRFTISRDNSKNTLYLQMNSLRAEDTAVYYCARDKLLWFGELLFDMDVWGKGTTVTVSS
VL: DIQMTQSPSSLSASVGDRVTITCRASQGISNYLAWFQQKPGKAPKSLIYDASSLQSGVPSKFSGSGSGTDFTLTISSLQPEDFATYYCQQYNSYPPSFGPGTKVDIK
[2]
  Kd: 54 pM

B3: antibody 422 (antibody, V domains shown)
VH: QVQLVQSGSELKKPGASVKVSCKASGYTFTSYAMNWVRQAPGQGLEWMGWINTNTGNPTYAQGFTGRFVFSLDTSVSTTYLQISSLKAEDTAVYYCARVIGVVTYYYYGMDVWGQGTTVTVSS
VL: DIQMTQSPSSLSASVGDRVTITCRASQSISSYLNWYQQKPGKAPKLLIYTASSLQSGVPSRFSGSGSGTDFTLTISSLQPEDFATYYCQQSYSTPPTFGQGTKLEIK
[3]
  median fluorescence, fold over isotype: 1250 fold over isotype control

B4: antibody 454 (antibody, V domains shown)
VH: QVQLVQSGAEVKKPGASLKVSCKASGYIFTGYYMHWVRQAPGQGLEWMGWISPNSGGTKYAQKFQGRVTMTRDTSISTAYMELSRLRSDDSAVYYCAREPYYDILTGYYTPRRYLDYWGQGTLVTVSS
VL: QSALTQPASVSGSPGQSITISCTGTSSDVGDYNYVSWYQQHPGKVPKLMIYDVSHRPSGVTNRFSGSKSGNTASLTISGLRAEDEADYYCSSYTSSSTYVFGTGTKVTVL
[3]
  median fluorescence, fold over isotype: 1090 fold over isotype control

B5: antibody 576 (antibody, V domains shown)
VH: QVQLVESGGGVVQPGRSLRLSCAASGFTFSSYAMHWVRQAPGKGLEWVAVISYDGSNKYYADSVKGRFTISRDNSKNTLYLQMNSLRAEDTAVYYCAKAGGGSYYRGFDYWGQGTLVTVSS
VL: DIQLTQSPSFLSASVGDRVTITCRASQGISSYLAWYQQKPGKAPKLLIYAASTLQSGVPSRFSGSGSGTEFTLTISSLQPEDFATYYCQQLNSYPTFGPGTKVDIK
[4]
  median fluorescence intensity, fold over isotype control: 8.75 fold over isotype

B6: antibody 439 (antibody, V domains shown)
VH: QVQLVESGGGVVQPGRSLRLSCAASGFTFSSYAMHWVRQAPGKGLEWVAVISYDGSNKYYADSVKGRFTISRDNSKNTLYLQMNSLRAEDTAVYYCARPPRGGSYYPFDPWGQGTLVTVSS
VL: not shown
[3]
  median fluorescence, fold over isotype: 227 fold over isotype control

B7: antibody 576 (antibody, V domains shown)
VH: QVQLVESGGGVVQPGRSLRLSCAASGFTFSSYAMHWVRQAPGKGLEWVAVISYDGSNKYYADSVKGRFTISRDNSKNTLYLQMNSLRAEDTAVYYCAKAGGGSYYRGFDYWGQGTLVTVSS
VL: DIQLTQSPSFLSASVGDRVTITCRASQGISSYLAWYQQKPGKAPKLLIYAASTLQSGVPSRFSGSGSGTEFTLTISSLQPEDFATYYCQQLNSYPTFGPGTKVDIK
[5]
  median fluorescence intensity, fold over isotype control: 566 fold over isotype

B8: antibody 431 (antibody, V domains shown)
VH: QVQLVESGGGVVQPGRSLRLSCAASGFTFSSYAMHWVRQAPGKGLEWLAVISYDGSNKYYADSVKGRFTISRDNSKNTLYLQMNSLRAEDTAVYYCARSFRGGYYYGMDVWGQGTTVTVSS
VL: DIQLTQSPSFLSASVGDRVTITCRASQGISSYLAWYQQKPGKAPKLLIYAASTLQSGVPSRFSGSGSGTEFTLTISSLQPEDFATYYCQQLNSYPLFTFGPGTKVDIK
[3]
  median fluorescence, fold over isotype: 715 fold over isotype control

B9: antibody 446 (antibody, V domains shown)
VH: QVQLVESGGGVVQPGRSLRLSCAASGFTFSSYAMHWVRQAPGKGLEWVAVISYDGSNKYYADSVKGRFTISRDNSKNTLYLQMNSLRAEDTAVYYCARPNSGSYFGYFQHWGQGTLVTVSS
VL: QSVLTQPPSVSGAPGQRVTISCTGSSSNIGAGYDVHWYQQLPGTAPKLLIYGNSNRPSGVPDRFSGSKSGTSASLAITGLQAEDEADYYCQSYDSSLSGFYVFGTGTKVTVL
[3]
  median fluorescence, fold over isotype: 435 fold over isotype control

B10: anti-SARS-CoV-2 antibody 1037 (antibody, V domains shown)
VH: QITLKESGPTLVKPTQTLTLTCTFSGFSLSTSGVGVGWIRQPPGKALEWLALIYWDDDKRYSPSLKSRLTITKDTSKNQVVLTMTNMDPVDTATYYCAHHTITRINDYWGQGTLVTVSS
VL: QSALTQPASVSGSPGQSITISCTATSSDVGAYNYVSWYQQHPGKAPKLMIYDVSKRPSGVSNRFSGSKSGNTASLTISGLQAEDEADYYCSSYTSSSTVFGGGTKLTVLG
[6]
  IC50 (µg/mL), plaque reduction neutralization test: 0.0096 µg/mL
[1]
  IC50 (ng/mL), immunofluorescence neutralization assay: 32.8 ng/mL

B11: anti-SARS-CoV-2 antibody 1081 (antibody, V domains shown)
VH: QITLKESGPTLVKPTQTLTLTCTFSGFSLSTSRVGVGWIRQPPGKALEWLALIYWNDGKLYSPSLKSRLTITKDTSKNQVVLTLTNMDSVDTATYFCARGQTGTPLYDAFDFWGRGTMVTVSS
VL: SYVLTQPPSVSVAPGKTAGITCGGDNFETKSVSWYQHKPGQAPVLVVYGNANRPSGIPERFSASKSGNTATLTISRVEAGDEADYYCQVWDSRSFHYVVFGGGTKLTVL
[2]
  Kd: 93 pM

B12: antibody 421 (antibody, V domains shown)
VH: QVQLVESGGGVVQPGRSLRLSCAASGFTFSTYAMHWVRQAPGKGLEWVAVISYDGSNKYYADSVKGRFTISRDNSKNTLYLQMNSLRAEDTAVYYCARGYGSGSYYPLYLYWGQGTLVTVSS
VL: not shown
[3]
  median fluorescence, fold over isotype: 505 fold over isotype control

B13: anti-SARS-CoV-2 antibody 1075 (antibody, V domains shown)
VH: QVQLVQSGAEVKKPGASVKVSCKVSGYTLIELSMHWVRQAPGKGLEWMGGFDPEDGETIYAQKFQGRVTMTEDTSTDTAYMELSSLRSEDTAVYYCATEWAYYGSGSYLGYWGQGTLVTVSS
VL: EIVMTQSPATLSVSPGERATLSCRASQSVSSNLAWFQQKPGQAPRLLIYGASTRVTVIPARFSGSGSGTEFTLTISSLQSEDFAVYYCQQYNNWPRTFGQGTKVEIKR
[6]
  IC50 (µg/mL), plaque reduction neutralization test: 0.409 µg/mL
[1]
  IC50 (ng/mL), immunofluorescence neutralization assay: 89.6 ng/mL

B14: anti-SARS-CoV-2 antibody 555 (antibody, V domains shown)
VH: QVQLVQSGAEVKKPGSSVKVSCKASGGTFSNYAISWVRQAPGQGLEWMGRIIPILGIANYAQKFQGRVTITADKSTSTAYMELSSLRSEDTAVYYCARGYYEARHYYYYYAMDVWGQGTAVTVSS
VL: not shown
[6]
  IC50 (µg/mL), plaque reduction neutralization test: 0.0083 µg/mL
[1]
  IC50 (ng/mL), immunofluorescence neutralization assay: 49.2 ng/mL

B15: anti-SARS-CoV-2 antibody 1000 (antibody, V domains shown)
VH: EVQLVQSGAEVKKPGESLKISCKASGYSFTIYWIGWVRQMPGKGLEWMGVIYPGDSDTRYSPSFQGQVTISADKSISTAYLQWSSLKASDTAMYYCALGYHSGSYPFNWFDPWGQGTLVTVSS
VL: EIVMTQSPATLSVSPGERATLSCRASQSVSSNLAWYQQKPGQTPRLLIYGASTRATGIPARFSGSGSGTEFTLTISSLQSEDFAVYYCQQYDNLLTFGGGTKVEIK
[2]
  Kd: 92 pM

B16: anti-SARS-CoV-2 antibody 923 (antibody, V domains shown)
VH: EVQLVESGGGVVRPGGSLRLSCAASGFIFDDYDMTWVRQAPGKGLEWVSGISWNGGNTGYADSVKGRFTISRDNAKNSLYLQMNSLRAEDTALYHCAVIMSPIPRYSGYDWAGGAFDIWGQGTMVTVSS
VL: SSELTQDPAVSVALGQTVRITCQGDSLRSYYASWYQQKPGQVPILVIYDKNNRPSGIPDRFSGSSSGNTASLTITGAQAEDEADYYCNSRDSSGNAVVFGGGTKLTVLG
[6]
  IC50 (µg/mL), plaque reduction neutralization test: 0.01 µg/mL
[1]
  IC50 (ng/mL), immunofluorescence neutralization assay: 121 ng/mL

B17: anti-SARS-CoV-2 antibody 1118 (antibody, V domains shown)
VH: QVQLVESGGGVVQPGRSLRLSCAASGFTFSTYAMHWVRQAPGKGLEWVAVISYDGSNKYYSDSVKGRFTISRDNSKNTLYLQMNSLRAEDTAVYYCARAHTSGWPLGDYFDYWGQGTLVTVSS
VL: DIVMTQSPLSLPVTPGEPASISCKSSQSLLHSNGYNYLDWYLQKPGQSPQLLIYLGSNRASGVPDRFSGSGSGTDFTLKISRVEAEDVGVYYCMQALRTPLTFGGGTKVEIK
[2]
  Kd: 223 pM
[7]
  Pseudo-neutralization IC50: 0.026 µg/mL

B18: antibody 423 (antibody, V domains shown)
VH: EVQLVESGGGLIQPGGSLRISCAASGFTVRNNHMSWVRQAPGKGLEWVSVFYRGGTTYYADSVKGRFTISRDDSKNTVDLQMNSLRGEDTAVYYCARGLSVAASGYFDCWGQGTLVTVSS
VL: DIQMTQSPSSVSASVGDTVTITCRANQGISSWLAWYQQVPGKAPELLIYATSTLQSGVPSRFSGSGSGTDFTLTISSLQPEDFATYYCQQANSFPFTFGPGTKVDIK
[3]
  median fluorescence, fold over isotype: 1190 fold over isotype control

B19: anti-SARS-CoV-2 antibody 1098 (antibody, V domains shown)
VH: EVQLLESGGGLVQPGGSLRLSCAASGFTFNSYAMSWVRQAPGKGLEWVSAISGSGGSTYYADSVKGRFSISRDNAKNTLFLQMNSLRAEDTAVYYCARSGGNFDYWGQGTLVTVSL
VL: SYELTQPPSVSVSPGQTARITCSGDVLAKRYVYWYQQKPGQAPVLVIYRDSERPSGIPERFSGSSSGTTVTLTISGVQAVDEADYYCQSADSSGTLYVFGTGTKVTVL
[2]
  Kd: 173 pM
[7]
  Pseudo-neutralization IC50: 0.087 µg/mL

B20: antibody 577 (antibody, V domains shown)
VH: QLPLQESGPGLVKPSETLSLTCTVSGGSISSSSYYWGWIRQPPGKGLEWIGSIYYSGSTFYNPSLKSRVTISGDTSKNQFSLKVTSVTAADTAVYYCARGSGSSGWYAFDIWGQGTMVTVSS
VL: QSALTQPASVSGSPGQSITISCTGTSSDFGGYNYVSWYQQHPDKAPKLMIYDVSNRPSGVSNRFSGSKSGNTASLTISGLQAEDEADYYCSSYTTSSTWVFGGGTKLTVL
[4]
  median fluorescence intensity, fold over isotype control: 1.14 fold over isotype

B21: anti-SARS-CoV-2 antibody 989 (antibody, V domains shown)
VH: QVQLVQSGAEVKKPGASVKVSCKASGYTFTNYYMHWVRQAPGQGLEWMGIINPSDDNTTYAQKIQGRVIMTRDTSTSTVYMELSSLRSEDTAVYYCARAFAEWELLLDYWGQGTLVTVSS
VL: not shown
[2]
  Kd: 104 pM
